Data set [1] deals with T1, FUBP1 KH1 (UniProt Q96AE4 100-164). Put plainly: EMSA; ITC: 25 mM HEPES pH 7.5, 50 mM NaCl (150 mM for tandem and KH1-4), 0.5 mM TCEP, 20 C; native PAGE: 200 uM protein, 5x ssDNA, 25 mM HEPES pH 7.5, 50 mM NaCl, 0.5 mM TCEP, 4 C, 0.5x TBE (KH4 0.5x TAE). The following applies: protein: recombinant; tags: His6 removed by TEV. (Mobility shift assays separate free from complexed probe on a gel.)

Data set [2] has as its target T2, FUBP1 KH3 (UniProt Q96AE4 275-339). The data set is described as above. The following applies: protein: recombinant; tags: His6 removed by TEV.
The next data set addresses FUBP1 KH3-4 (UniProt Q96AE4 275-443). Briefly: ITC; 150 mM NaCl; range given for the three tandems; ITC: 25 mM HEPES pH 7.5, 50 mM NaCl (150 mM for tandem and KH1-4), 0.5 mM TCEP, 20 C; native PAGE: 200 uM protein, 5x ssDNA, 25 mM HEPES pH 7.5, 50 mM NaCl, 0.5 mM TCEP, 4 C, 0.5x TBE (KH4 0.5x TAE). As to conditions: protein: recombinant; tags: His6 removed by TEV. For orientation: ITC needs no label: the signal is the heat of the interaction.

For a further data set, the target named is FUBP1 KH2-3 (UniProt Q96AE4 185-339). The data set is described as above. As to conditions: protein: recombinant; tags: His6 removed by TEV.
The target of the next data set is FUBP1 KH1-2 (UniProt Q96AE4 100-251). The data set is described as above. The following applies: protein: recombinant; tags: His6 removed by TEV.
For the next data set, the target named is FUBP1 KH1-4 (UniProt Q96AE4 100-443). Put plainly: ITC; 150 mM NaCl; ITC: 25 mM HEPES pH 7.5, 50 mM NaCl (150 mM for tandem and KH1-4), 0.5 mM TCEP, 20 C; native PAGE: 200 uM protein, 5x ssDNA, 25 mM HEPES pH 7.5, 50 mM NaCl, 0.5 mM TCEP, 4 C, 0.5x TBE (KH4 0.5x TAE). The following applies: protein: recombinant; tags: His6 removed by TEV.
In data set [3] the target is T3, FUBP1 KH4 (UniProt Q96AE4 376-443). Briefly: EMSA; ITC: 25 mM HEPES pH 7.5, 50 mM NaCl (150 mM for tandem and KH1-4), 0.5 mM TCEP, 20 C; native PAGE: 200 uM protein, 5x ssDNA, 25 mM HEPES pH 7.5, 50 mM NaCl, 0.5 mM TCEP, 4 C, 0.5x TBE (KH4 0.5x TAE). As to conditions: protein: recombinant; tags: N-terminal His6 kept in native PAGE; removed by TEV in general protocol.

Data set [4] concerns the target T4, FUBP1 KH2 (UniProt Q96AE4 185-251). The description is as above. As to conditions: protein: recombinant; tags: His6 removed by TEV.
For data set [5], the target named is T4, FUBP1 KH2. Briefly: ITC; 50 mM NaCl; preferred over fragment 8; ITC: 25 mM HEPES pH 7.5, 50 mM NaCl (150 mM for tandem and KH1-4), 0.5 mM TCEP, 20 C; native PAGE: 200 uM protein, 5x ssDNA, 25 mM HEPES pH 7.5, 50 mM NaCl, 0.5 mM TCEP, 4 C, 0.5x TBE (KH4 0.5x TAE). As to conditions: protein: recombinant; tags: His6 removed by TEV.
For data set [6], the target named is T3, FUBP1 KH4. Briefly: ITC; 50 mM NaCl; no preference between fragments 7 and 8; ITC: 25 mM HEPES pH 7.5, 50 mM NaCl (150 mM for tandem and KH1-4), 0.5 mM TCEP, 20 C; native PAGE: 200 uM protein, 5x ssDNA, 25 mM HEPES pH 7.5, 50 mM NaCl, 0.5 mM TCEP, 4 C, 0.5x TBE (KH4 0.5x TAE). As to conditions: protein: recombinant; tags: N-terminal His6 kept in native PAGE; removed by TEV in general protocol.

For data set [7], the target named is T3, FUBP1 KH4. Briefly: ITC; 50 mM NaCl; Kd only in Fig 3C; ITC: 25 mM HEPES pH 7.5, 50 mM NaCl (150 mM for tandem and KH1-4), 0.5 mM TCEP, 20 C; native PAGE: 200 uM protein, 5x ssDNA, 25 mM HEPES pH 7.5, 50 mM NaCl, 0.5 mM TCEP, 4 C, 0.5x TBE (KH4 0.5x TAE). The following applies: protein: recombinant; tags: N-terminal His6 kept in native PAGE; removed by TEV in general protocol.

The target of data set [8] is T1, FUBP1 KH1. The data set is described as above. As to conditions: protein: recombinant; tags: His6 removed by TEV.
In data set [9] the target is T4, FUBP1 KH2. Described as above. As to conditions: protein: recombinant; tags: His6 removed by TEV.
The target in data set [10] is T2, FUBP1 KH3. Briefly: ITC; 50 mM NaCl; ITC: 25 mM HEPES pH 7.5, 50 mM NaCl (150 mM for tandem and KH1-4), 0.5 mM TCEP, 20 C; native PAGE: 200 uM protein, 5x ssDNA, 25 mM HEPES pH 7.5, 50 mM NaCl, 0.5 mM TCEP, 4 C, 0.5x TBE (KH4 0.5x TAE). The following applies: protein: recombinant; tags: His6 removed by TEV.

T3 sequence (Q96AE4 376-443): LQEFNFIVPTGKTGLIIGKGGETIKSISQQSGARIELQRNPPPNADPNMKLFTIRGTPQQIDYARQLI
T4 sequence (Q96AE4 185-251): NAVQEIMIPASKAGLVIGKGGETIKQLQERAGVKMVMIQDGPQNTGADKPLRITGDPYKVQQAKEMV
T2 sequence (Q96AE4 275-339): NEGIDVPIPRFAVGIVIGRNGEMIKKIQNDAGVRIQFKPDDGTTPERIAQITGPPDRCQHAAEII
T1 sequence (Q96AE4 100-164): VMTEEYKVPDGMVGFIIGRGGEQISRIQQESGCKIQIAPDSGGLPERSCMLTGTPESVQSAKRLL
Sequence of FUBP1 KH3-4 (Q96AE4 275-443): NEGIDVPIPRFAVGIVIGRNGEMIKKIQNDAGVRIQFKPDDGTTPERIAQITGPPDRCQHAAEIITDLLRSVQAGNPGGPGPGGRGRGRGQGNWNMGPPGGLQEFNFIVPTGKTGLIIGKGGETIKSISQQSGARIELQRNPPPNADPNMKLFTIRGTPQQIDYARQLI
Sequence of FUBP1 KH1-2 (Q96AE4 100-251): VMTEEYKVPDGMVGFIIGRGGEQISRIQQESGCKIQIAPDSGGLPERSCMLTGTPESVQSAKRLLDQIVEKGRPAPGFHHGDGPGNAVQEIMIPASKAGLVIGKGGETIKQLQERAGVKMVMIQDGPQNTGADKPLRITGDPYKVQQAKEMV
Sequence of FUBP1 KH2-3 (Q96AE4 185-339): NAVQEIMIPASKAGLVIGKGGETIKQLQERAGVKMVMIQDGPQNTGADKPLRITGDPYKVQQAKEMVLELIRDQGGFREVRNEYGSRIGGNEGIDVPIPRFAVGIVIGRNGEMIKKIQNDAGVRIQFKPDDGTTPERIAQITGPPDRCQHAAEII
Sequence of FUBP1 KH1-4 (Q96AE4 100-443): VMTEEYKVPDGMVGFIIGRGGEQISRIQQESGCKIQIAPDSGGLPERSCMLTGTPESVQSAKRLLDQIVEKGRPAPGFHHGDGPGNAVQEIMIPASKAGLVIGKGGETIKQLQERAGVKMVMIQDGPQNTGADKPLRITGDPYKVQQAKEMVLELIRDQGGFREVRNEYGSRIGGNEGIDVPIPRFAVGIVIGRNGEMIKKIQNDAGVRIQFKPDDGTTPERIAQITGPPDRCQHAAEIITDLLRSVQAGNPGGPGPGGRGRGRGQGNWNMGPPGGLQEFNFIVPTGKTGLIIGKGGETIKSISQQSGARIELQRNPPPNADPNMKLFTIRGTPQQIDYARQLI

B1: FUSE fragment 8, 10-mer (native PAGE) (ssDNA)
DNA: TTTGTGTTAA
For B1, the binding result with FUBP1 KH1 [1] and in the data set with FUBP1 KH3 [2] was “binds” in each case.

B2: 47-mer c-Myc FUSE (ssDNA)
DNA: ATGTATATTCCCTCGGGATTTTTTATTTTGTGTTATTCCACGGCATG
A word on the Kd: it is the equilibrium constant for the complex coming apart. Consider B2, for which the Kd with FUBP1 KH3-4 is about 5.29 µM; with FUBP1 KH2-3, about 5.29 µM; with FUBP1 KH1-2 it was about 5.29 µM; in the data set with FUBP1 KH1-4 it was about 85 nM.

B3: FUSE fragment 10, 10-mer (ssDNA)
DNA: TTCCACGGAA
For the molecule B3, the binding result with FUBP1 KH4 [3] and with FUBP1 KH2 [4] was “no binding” throughout.

B4: FUSE fragment 4, 10-mer (ssDNA)
DNA: CCCTCGGGAA
As to B4, the binding result with FUBP1 KH4 [3] and with FUBP1 KH2 [4] was “no binding” throughout.

B5: FUSE fragment 7, 8-mer (ITC) (ssDNA)
DNA: TATTTTGT
B5: the binding result with FUBP1 KH2 [5] and with FUBP1 KH4 [6] was “binds” each time.

B6: FUSE fragment 8, 8-mer (ITC) (ssDNA)
DNA: TTGTGTTA
On to B6, for which the binding signal with FUBP1 KH4 [7], in the data set with FUBP1 KH1 [8] and with FUBP1 KH2 [9] was > 5 fold weaker than KH3 (at least) in each case. Besides, the Kd with FUBP1 KH3 [10] is 17 µM.

The record behind these values is publication PMC7417555, “Comparative structural analyses and nucleotide-binding characterization of the four KH domains of FUBP1”.
